Residue numbers refer to the chain shown, from its start. Read-outs that look alike come from different tables or passages of the source.
Assays:
[1] = molecular target: T1, recombinant CotH3 protein of Rhizopus delemar 99-880 (Flag-TEV-CotH3 made in S. cerevisiae) (Rhizopus delemar 99-880 (Rhizopus …, UniProt I1CFE1 18-579)); assay: BLI (Gator), antibody from culture medium on Protein G sensor
T1 construct: also called CotH3 antigen; rCotH3p
T1 sequence: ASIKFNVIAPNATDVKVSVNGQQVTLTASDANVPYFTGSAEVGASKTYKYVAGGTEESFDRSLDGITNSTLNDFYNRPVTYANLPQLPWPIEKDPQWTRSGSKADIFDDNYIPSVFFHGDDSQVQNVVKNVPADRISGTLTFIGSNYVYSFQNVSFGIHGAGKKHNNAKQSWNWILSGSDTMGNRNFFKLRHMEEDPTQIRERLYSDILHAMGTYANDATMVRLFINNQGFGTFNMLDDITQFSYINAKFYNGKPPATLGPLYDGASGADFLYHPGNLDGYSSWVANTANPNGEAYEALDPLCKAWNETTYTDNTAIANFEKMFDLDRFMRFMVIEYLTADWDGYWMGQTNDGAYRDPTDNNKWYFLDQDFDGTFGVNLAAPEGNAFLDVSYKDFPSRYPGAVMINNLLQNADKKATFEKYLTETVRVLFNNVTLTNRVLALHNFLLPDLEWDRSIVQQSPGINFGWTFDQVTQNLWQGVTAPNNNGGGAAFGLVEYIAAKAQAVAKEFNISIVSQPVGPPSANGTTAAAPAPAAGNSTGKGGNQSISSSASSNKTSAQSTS

[2] = molecular target: T2, Rhizopus delemar (Rhizopus delemar); assay: flow cytometry on fixed Rhizopus delemar spores, 20 ug/ml antibody; blank 'Hu 2nd Only' median 565.83, mean 592.76
T2 construct: native, on paraformaldehyde-fixed spores; also called cell-surface CotH antigen on Rhizopus delemar spores

[3] = molecular target: T3, Rhizomucor (Rhizomucor (species not given)); assay: flow cytometry on fixed Rhizomucor spores, 20 ug/ml antibody; blank 'Hu 2nd Only' median 257.20, mean 272.52
T3 construct: native, on paraformaldehyde-fixed spores; also called cell-surface CotH antigen on Rhizomucor spores

[4] = molecular target: T4, Cunninghamella bertholletiae (Cunninghamella bertholletiae); assay: flow cytometry on fixed Cunninghamella bertholletiae spores, 20 ug/ml antibody; blank 'Hu 2nd Only' median 241.78, mean 250.81
T4 construct: native, on paraformaldehyde-fixed spores; also called cell-surface CotH antigen on Cunninghamella bertholletiae spores

[5] = molecular target: T5, Mucor circinelloides (Mucor circinelloides); assay: flow cytometry on fixed Mucor circinelloides spores, 20 ug/ml antibody; blank 'Hu 2nd Only' median 990.21, mean 1062.19
T5 construct: native, on paraformaldehyde-fixed spores; also called cell-surface CotH antigen on Mucor circinelloides spores

[6] = molecular target: T1, recombinant CotH3 protein of Rhizopus …
[7] = molecular target: T1, recombinant CotH3 protein of Rhizopus …; assay: method and antigen form not stated
[8] = molecular target: T1, recombinant CotH3 protein of Rhizopus …; assay: dose response of Fnorm [per mille] against ligand concentration [M], Kd model, On Time 20s, TargetConc 5nM, Unbound 829.3, Bound 803.3, amplitude 26.0, signal to noise 20.5; method and antigen not named in the filing's text
[9] = molecular target: T1, recombinant CotH3 protein of Rhizopus …; assay: not stated (conclusions; reported affinity)
[10] = molecular target: T1, recombinant CotH3 protein of Rhizopus …; assay: BLI (Gator), from the KD values of Table 5
Experimental: (§1) The purified preparations were then used to assess the affinity of each clone for the CotH3 antigen by biolayer interferometry using Gator system (ProbeLife). Under the assumption that the CotH3 antigen provided by Vitalex behaves as a normal soluble monomeric protein, a Protein G coated sensor probe (ProbeLife, catalog #160006) was loaded with the bivalent antibody test clone at a concentration of 5 μg/ml in ProbeLife's kinetic buffer (PBS pH 7.4, 0.02% BSA, 0.002% Tween-20, 0.005% NaN₃). […] All reactions were performed at 25° C. The values are chosen when three or more concentrations yield the same kinetic values.

[11] = molecular target: T1, recombinant CotH3 protein of Rhizopus …; assay: BLI (Gator), antibody on Protein G sensor, CotH3 6.25-400 nM, 25 C
Experimental: as §1

B1: humanized variant LC2:HC1 (antibody, V domains shown)
VH: QVQLQESGPGLVKPSETLSLTCTVSGDSITSGYWSWIRQPPGKGLEWIGYIKYSGRTNYNPSLKSRVTISRDTSKNQFSLKLSSVTAADTAVYYCASRGYWGQGTLVTVSS
VL: DIVMTQTPLSLSVTPGQPASISCKSSQSLLDSDGKTFLNWLLQKPGQSPQLLIYLVSKLDSGVPDRFSGSGSGTDFTLKISRVEAEDVGVYYCWQGTHFPHTFGQGTKVEIKR
binding result [1]: no binding (tested: 30 nM CotH3)

B2: humanized variant Grafted LC:HC1 (antibody, V domains shown)
VH: B1 VH
VL: DIVMTQTPLSLSVTPGQPASISCKSSQSLLDSDGKTFLYWYLQKPGQSPQLLIYLVSSRFSPDRFSGSGSGTDFTLKISRVEAEDVGVYYCWQGTHFPHTFGQGTKVEIKR
binding result [1]: no binding (tested: 30 nM CotH3)

B3: humanized variant LC1:HC3 (antibody, V domains shown)
VH: B1 VH with S35N, W47H, N58F
VL: B1 VL with N39Y, L41Y
binding result [1]: no binding (tested: 30 nM CotH3)

B4: humanized variant LC3:HC1 (antibody, V domains shown)
VH: B1 VH
VL: B1 VL with L51R
binding result [1]: no binding (tested: 30 nM CotH3)

B5: humanized anti-CotH3 antibody LC2:HC3 (antibody, human IgG1, kappa, V domains shown)
VH: B1 VH with S35N, W47H, N58F
VL: B1 VL
notes: also called L2:H3; IgG anti-CotH3-LC2HC3
Mean: FITC-A [2]: 28900
Median: FITC-A [2]: 27700
Mean: FITC-A [3]: 29000
Median: FITC-A [3]: 29000
Mean: FITC-A [4]: 29800
Median: FITC-A [4]: 29200
Mean: FITC-A [5]: 40600
Median: FITC-A [5]: 36500

B6: humanized variant LC2:Grafted HC (antibody, V domains shown)
VH: B1 VH with R71V
VL: B1 VL
binding result [1]: no binding (tested: 30 nM CotH3)

B7: humanized anti-CotH3 antibody LC3:HC3 (antibody, human IgG1, kappa)
heavy: not shown
light: DIVMTQTPLSLSVTPGQPASISCKSSQSLLDSDGKTFLNWLLQKPGQSPQRLIYLVSKLDSGVPDRFSGSGSGTDFTLKISRVEAEDVGVYYCWQGTHFPHTFGQGTKVEIKRTVAAPSVFIFPPSDEQLKSGTASVVCLLNNFYPREAKVQWKVDNALQSGNSQESVTEQDSKDSTYSLSSTLTLSKADYEKHKVYACEVTHQGLSSPVTKSFNRGEC
notes: also called VX01; L3:H3
Mean: FITC-A [2]: 18200
Median: FITC-A [2]: 17000
Mean: FITC-A [3]: 19800
Median: FITC-A [3]: 19900
Mean: FITC-A [4]: 19300
Median: FITC-A [4]: 18900
Mean: FITC-A [5]: 22500
Median: FITC-A [5]: 18800

B8: humanized variant LC1:HC1 (antibody, V domains shown)
VH: B1 VH
VL: B1 VL with N39Y, L41Y
binding result [1]: no binding (tested: 30 nM CotH3)

B9: humanized variant LC3:Grafted HC (antibody, V domains shown)
VH: B1 VH with R71V
VL: B1 VL with L51R
binding result [1]: no binding (tested: 30 nM CotH3)

B10: humanized variant LC1:HC2 (antibody, V domains shown)
VH: B1 VH with W47H, N58F
VL: B1 VL with N39Y, L41Y
binding result [1]: no binding (tested: 30 nM CotH3)

B11: humanized anti-CotH3 antibody LC3:HC2 (antibody, human IgG1, kappa, V domains shown)
VH: B1 VH with W47H, N58F
VL: B1 VL with L51R
notes: also called L3:H2; IgG anti-CotH3-LC3HC2
Mean: FITC-A [2]: 21800
Median: FITC-A [2]: 20600
Mean: FITC-A [3]: 35900
Median: FITC-A [3]: 35900
Mean: FITC-A [4]: 35600
Median: FITC-A [4]: 34900
Mean: FITC-A [5]: 43200
Median: FITC-A [5]: 37100

B12: mouse anti-CotH3 monoclonal antibody clone C2 (antibody, V domains shown)
VH: DLQLQESGPSLVKPSQTLSLTCSVTGDSITSGYWNWIRKFPGNKLEHMGYIKYSGRTFYNPSLKSRVSITRDTSKNQYYLQLNSVTSEDTATYYCASRGYWGQGTTLTVSS
VL: DVVMTQTPLSLSVTIGQPASISCKSSQSLLYSNGKTYLNWLQQRPGQAPKLLMFQVSKPGIPDRFSGSGSETDFTLKISRVEAEDLGVYYCLQGTYFPHTFGAGTKVEIK
notes: also called 6E11A8 mAb; mAb
Kd [6]: 58.9 nM
koff [6]: 0.00141 s⁻¹
kon [6]: 23900 M⁻¹ s⁻¹
Kd [7]: ~40 nM
Kd [8]: 40.4 nM
Kd [9]: ~50 nM

B13: C2 Chimera 2 (C2 VH on human IgG1 constant region with AvantGen cloned variable kappa on human kappa constant region) (antibody, V domains shown)
VH: B12 VH
VL: DVVMTQTPLSLSVTIGQPASISCKSSQSLLYSNGKTYLNWLQQRPGQAPKLLMFQVSKPGIPDRFSGSGSETDFTLKISRVEAEDLGVYYCLQGTYFPHTFGAGTKVEIKR
notes: also called AvantGen LC-chimera
fold improvement in affinity over the parental mouse mAb [10]: 33 fold
Kd [11]: 1.8 nM
koff [11]: 0.00111 s⁻¹
kon [11]: 627000 M⁻¹ s⁻¹
